Columns and labels:
[1] = target: T1, human CD28 (human, UniProt P10747 19-220); test: flow cytometry on Jurkat cells (CD28)
T1 construct: Endogenous CD28 on Jurkat/IL2 reporter cells

[2] = target: T2, human CTLA-4 (human, UniProt P16410 36-223); test: flow cytometry on CHO cells stably expressing CTLA4
T2 construct: also called huCTLA4
T2 sequence (P16410 36-223): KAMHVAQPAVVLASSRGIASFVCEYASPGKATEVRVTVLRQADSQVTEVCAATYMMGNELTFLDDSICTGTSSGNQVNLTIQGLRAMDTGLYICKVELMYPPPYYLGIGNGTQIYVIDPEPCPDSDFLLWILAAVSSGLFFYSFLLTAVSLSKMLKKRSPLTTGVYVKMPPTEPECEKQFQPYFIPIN

[3] = target: T3, human PD-L1 (human, UniProt Q9NZQ7 19-290); test: flow cytometry on CHO cells stably expressing PD-L1
T3 construct: also called huPD-L1; CD274
T3 sequence (Q9NZQ7 19-290): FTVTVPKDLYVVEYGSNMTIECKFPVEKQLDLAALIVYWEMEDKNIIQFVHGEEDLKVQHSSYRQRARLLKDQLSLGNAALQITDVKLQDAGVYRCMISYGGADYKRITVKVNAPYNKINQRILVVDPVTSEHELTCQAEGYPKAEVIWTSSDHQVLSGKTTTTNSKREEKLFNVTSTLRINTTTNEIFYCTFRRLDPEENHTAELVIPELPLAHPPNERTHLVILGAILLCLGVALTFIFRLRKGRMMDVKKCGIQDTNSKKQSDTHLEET

[4] = target: T4, human CTLA-4 (human, UniProt P16410 36-223); test: flow cytometry, CHO cells stably expressing huCTLA4, 33.3 nM, PE anti-human Fc
T4 construct: whole, on cells; also called huCTLA4
T4 sequence (P16410 36-223): as the sequence (P16410 36-223) above

[5] = target: T5, human PD-L1 (human, UniProt Q9NZQ7 19-290); test: flow cytometry, CHO cells stably expressing huPD-L1, 33.3 nM, PE anti-human Fc
T5 construct: whole, on cells; also called huPD-L1
T5 sequence (Q9NZQ7 19-290): as the sequence (Q9NZQ7 19-290) above

[6] = target: T5, human PD-L1; test: flow cytometry; MFI on CHO/PD-L1 over MFI on Jurkat (CD28), 33.3 nM
[7] = target: T6, human CD28 (human, UniProt P10747 19-220); test: flow cytometry, Jurkat/IL2 reporter cells (endogenous CD28), 33.3 nM, PE anti-human Fc
T6 construct: whole, on cells; Endogenous CD28 of Jurkat/IL2 reporter cells

[8] = target: T7, human PD-L1 (huPD-L1), full-length, stably expressed on CHO cells (human, UniProt Q9NZQ7 19-290); test: flow cytometry, CHO cells expressing huPD-L1; MFI against WT CD80 of the table
T7 construct: whole, on cells

[9] = target: T7, human PD-L1 (huPD-L1), full-length, …; test: flow cytometry; MFI on PD-L1 CHO cells over MFI on Jurkat cells (CD28)
[10] = target: T7, human PD-L1 (huPD-L1), full-length, …; test: flow cytometry, CHO cells expressing huPD-L1
[11] = target: T8, CD28, endogenously expressed on Jurkat/IL2 reporter cells (human, UniProt P10747 19-220); test: flow cytometry, Jurkat/IL2 reporter cells (endogenous CD28)
T8 construct: whole, on cells

[12] = target: T9, human CTLA4 (huCTLA4), full-length, stably expressed on CHO cells (human, UniProt P16410 36-223); test: flow cytometry, CHO cells expressing huCTLA4; MFI against WT CD80 of the table
T9 construct: whole, on cells

[13] = target: T8, CD28, endogenously expressed on …; test: flow cytometry, Jurkat/IL2 reporter cells (endogenous CD28); MFI against WT CD80 of the table
[14] = target: T9, human CTLA4 (huCTLA4), full-length, …; test: flow cytometry, CHO cells expressing huCTLA4
[15] = target: T10, human PD-L1, expressed on CHO cells (human, UniProt Q9NZQ7 19-290); test: flow cytometry on CHO cells stably expressing human PD-L1; PE anti-human Fc
T10 construct: Full-length surface expression construct transduced by lentivirus into CHO cells; also called huPD-L1; CD274

[16] = target: T11, human CTLA-4 (CTLA4), expressed on CHO cells (human, UniProt P16410 36-223); test: flow cytometry on CHO cells stably expressing human CTLA-4; PE anti-human Fc
T11 construct: Full-length surface expression construct transduced by lentivirus into CHO cells; also called huCTLA4
T11 sequence (P16410 36-223): as the sequence (P16410 36-223) above

T7 sequence (Q9NZQ7 19-290): as the sequence (Q9NZQ7 19-290) above
T9 sequence (P16410 36-223): as the sequence (P16410 36-223) above
T10 sequence (Q9NZQ7 19-290): as the sequence (Q9NZQ7 19-290) above

| Binder | Fold change to WT CD80 [4] [fold] | MFI at 33.3 nM [4] [MFI] | Fold change to WT [5] [fold] | MFI at 33.3 nM [5] [MFI] | Ratio of PDL1:CD28 [6] [ratio] | Fold change to WT CD80 [8] [fold] | Ratio of PDL1:CD28 [9] [ratio] | MFI at 33.3 nM [10] [MFI] | MFI at 33.3 nM [11] [MFI] | Fold change to WT CD80 [12] [fold] | Fold change to WT CD80 [13] [fold] | MFI at 33.3 nM [14] [MFI] | other results |
| --- | --- | --- | --- | --- | --- | --- | --- | --- | --- | --- | --- | --- | --- |
| CD80 E35D/M47V/N48K/V68M/K89N IgV-Fc, (EAAAK)3 linker (Fc fusion, not shown: a dimerising Fc or GST) VIHVTKEVKEVATLSCGHNVSVEELAQTRIYWQKDKKMVLTMMSGDVKIWPEYKNRTIFDITNNLSIMILALRPSDEGTYECVVLKYENDAFKREHLAEVTLSVKADEAAAKEAAAKEAAAK |  |  |  |  |  |  |  |  |  |  |  |  | MFI at 33.3 nM [1]: 1280 MFI; MFI at 33.3 nM [2]: 27100 MFI; MFI at 33.3 nM [3]: 24500 MFI |
| E24D/Q27R/E35D/T41S/M47V/L85Q CD80 IgV-Fc (Fc fusion, not shown: a dimerising Fc or GST) VIHVTKEVKEVATLSCGHNVSVEDLARTRIYWQKDKKMVLSMMSGDVNIWPEYKNRTIFDITNNLSIVILALRPSDEGTYECVVQKYEKDAFKREHLAEVTLSVKAD | 13.5 | 13900 | 34.3 | 2860 | 44 |  |  |  |  |  |  |  | Fold change to WT [7]: 1.6 fold; MFI at 33.3 nM [7]: 66 MFI |
| variant CD80 IgV-Fc E35D/M47V/N48K/V68M/A71G/L85M (Fc fusion, not shown: small tags and cut ends; a dimerising Fc or GST) VIHVTKEVKEVATLSCGHNVSVEELAQTRIYWQKDKKMVLTMMSGDVKIWPEYKNRTIFDITNNLSIMILGLRPSDEGTYECVVMKYEKDAFKREHLAEVTLSVKAD |  |  |  |  |  | 442 | 75.4 | 22800 | 302 | 9.5 | 9.6 | 16600 |  |
| variant CD80 IgV-Fc E35D/M47L/Y53F/V68M/A71G/K93R/E95V (Fc fusion, not shown: small tags and cut ends; a dimerising Fc or GST) VIHVTKEVKEVATLSCGHNVSVEELAQTRIYWQKDKKMVLTMMSGDLNIWPEFKNRTIFDITNNLSIMILGLRPSDEGTYECVVLKYEKDAFRRVHLAEVTLSVKAD |  |  |  |  |  | 486 | 65.3 | 25000 | 383 | 9.1 | 12.2 | 16000 |  |
| E35D/M47L/V68M/A71G/L85Q/D90G CD80 IgV-Fc (Fc fusion, not shown: a dimerising Fc or GST) VIHVTKEVKEVATLSCGHNVSVEELAQTRIYWQKDKKMVLTMMSGDLNIWPEYKNRTIFDITNNLSIMILGLRPSDEGTYECVVQKYEKGAFKREHLAEVTLSVKAD | 10.1 | 10300 | 202 | 16800 | 12 |  |  |  |  |  |  |  | Fold change to WT [7]: 33.9 fold; MFI at 33.3 nM [7]: 1400 MFI |
| variant CD80 IgV-Fc E35D/M43I/M47L/V68M (Fc fusion, not shown: small tags and cut ends; a dimerising Fc or GST) VIHVTKEVKEVATLSCGHNVSVEELAQTRIYWQKDKKMVLTMISGDLNIWPEYKNRTIFDITNNLSIMILALRPSDEGTYECVVLKYEKDAFKREHLAEVTLSVKAD |  |  |  |  |  | 328 | 11.1 | 16900 | 1520 | 9.3 | 48.3 | 16200 |  |
| variant CD80 IgV-Fc Q33R/E35D/M47V/N48K/L85M/F92L (Fc fusion, not shown: small tags and cut ends; a dimerising Fc or GST, Fc fusion of the variant IgV) VIHVTKEVKEVATLSCGHNVSVEELAQTRIYWRKDKKMVLTMMSGDVKIWPEYKNRTIFDITNNLSIVILALRPSDEGTYECVVMKYEKDALKREHLAEVTLSVKAD |  |  |  |  |  |  |  |  |  |  |  |  | MFI at 33.3 nM [15]: 21400 MFI; MFI at 33.3 nM [16]: 2680 MFI |
| variant CD80 IgV-Fc H18Y/V22D/E35D/M47V/N48K/V68M (Fc fusion, not shown: small tags and cut ends; a dimerising Fc or GST) VIHVTKEVKEVATLSCGYNVSDEELAQTRIYWQKDKKMVLTMMSGDVKIWPEYKNRTIFDITNNLSIMILALRPSDEGTYECVVLKYEKDAFKREHLAEVTLSVKAD |  |  |  |  |  | 250 | 50.1 | 12900 | 257 | 9 | 8.2 | 15800 |  |
| Q33R/M47V/T62N/A71G CD80 IgV-Fc (Fc fusion, not shown: a dimerising Fc or GST) VIHVTKEVKEVATLSCGHNVSVEELAQTRIYWRKEKKMVLTMMSGDVNIWPEYKNRTIFDINNNLSIVILGLRPSDEGTYECVVLKYEKDAFKREHLAEVTLSVKAD | 0.3 | 308 | 146 | 12200 | 719 |  |  |  |  |  |  |  |  |
| H18Y/V22A/E35D/T41S/M47V/T62N/A71G/A91G CD80 IgV-Fc (Fc fusion, not shown: a dimerising Fc or GST) VIHVTKEVKEVATLSCGYNVSAEELAQTRIYWQKDKKMVLSMMSGDVNIWPEYKNRTIFDINNNLSIVILGLRPSDEGTYECVVLKYEKDGFKREHLAEVTLSVKAD | 10 | 10300 | 101 | 8460 | 5 |  |  |  |  |  |  |  | Fold change to WT [7]: 38.5 fold; MFI at 33.3 nM [7]: 1590 MFI |
| E35D/D46E/M47L/V68M/L85Q/F92L CD80 IgV-Fc (Fc fusion, not shown: a dimerising Fc or GST) VIHVTKEVKEVATLSCGHNVSVEELAQTRIYWQKDKKMVLTMMSGELNIWPEYKNRTIFDITNNLSIMILALRPSDEGTYECVVQKYEKDALKREHLAEVTLSVKAD | 0.2 | 214 | 158 | 13200 | 863 |  |  |  |  |  |  |  |  |
| variant CD80 IgV-Fc H18Y/E35D/V68M/T79M/L85M (Fc fusion, not shown: small tags and cut ends; a dimerising Fc or GST) VIHVTKEVKEVATLSCGYNVSVEELAQTRIYWQKDKKMVLTMMSGDMNIWPEYKNRTIFDITNNLSIMILALRPSDEGMYECVVMKYEKDAFKREHLAEVTLSVKAD |  |  |  |  |  | 290 | 14.3 | 14900 | 1040 | 9.3 | 33.2 | 16300 |  |
| variant CD80 IgV-Fc E35D/T41S/D46E/M47I/V68M/K93R/E95V (Fc fusion, not shown: small tags and cut ends; a dimerising Fc or GST) VIHVTKEVKEVATLSCGHNVSVEELAQTRIYWQKDKKMVLSMMSGEINIWPEYKNRTIFDITNNLSIMILALRPSDEGTYECVVLKYEKDAFRRVHLAEVTLSVKAD |  |  |  |  |  | 287 | 31.1 | 14800 | 476 | 10.5 | 15.2 | 18400 |  |
| variant CD80 IgV-Fc Q33L/E35D/M43I/Y53F/T62S/L85Q (Fc fusion, not shown: small tags and cut ends; a dimerising Fc or GST, Fc fusion of the variant IgV) VIHVTKEVKEVATLSCGHNVSVEELAQTRIYWLKDKKMVLTMISGDMNIWPEFKNRTIFDISNNLSIVILALRPSDEGTYECVVQKYEKDAFKREHLAEVTLSVKAD |  |  |  |  |  |  |  |  |  |  |  |  | MFI at 33.3 nM [15]: 72100 MFI; MFI at 33.3 nM [16]: 3980 MFI |
| S15T/H18Y/E35D/M47V/T62A/N64S/A71G/L85Q/D90N CD80 IgV-Fc (Fc fusion, not shown: a dimerising Fc or GST) VIHVTKEVKEVATLTCGYNVSVEELAQTRIYWQKDKKMVLTMMSGDVNIWPEYKNRTIFDIANSLSIVILGLRPSDEGTYECVVQKYEKNAFKREHLAEVTLSVKAD | 10.7 | 11000 | 166 | 13900 | 13 |  |  |  |  |  |  |  | Fold change to WT [7]: 25.9 fold; MFI at 33.3 nM [7]: 1070 MFI |
| variant CD80 IgV-Fc E35D/M47V/N48K/V68M/L85M (Fc fusion, not shown: small tags and cut ends; a dimerising Fc or GST) VIHVTKEVKEVATLSCGHNVSVEELAQTRIYWQKDKKMVLTMMSGDVKIWPEYKNRTIFDITNNLSIMILALRPSDEGTYECVVMKYEKDAFKREHLAEVTLSVKAD |  |  |  |  |  | 148 | 31.1 | 7620 | 245 | 8.9 | 7.8 | 15600 |  |

— patent US20210130436A1 (published 2021)
